# Data: patent US20210163598A1 (BEIJING PROTEOME RESEARCH CENTER, published 2021)
# Columns and labels:
# [1] = target: T1, BTN3A1 overexpressed on BT474 cells (BT474-BTN3A1) (UniProt O00481 30-513, limits assumed); assay: flow cytometric adhesion assay, human LSECtin detected with antibody CCB059
# T1 construct: whole, on cells; Expressed from pIRES2-EGFP-BTN3A1 in BT474 cells
# Text: (§1) 3. Each cell in the step 2 was obtained by digestion and collection, and then was adhered to human LSECtin protein (R&D, 2947-CL) and mouse LSECtin-Fc protein, respectively, and the human LSECtin adhesion rate was detected by mouse anti-human LSECtin antibody CCB059. […] mouse LSECtin adhesion rate was detected by anti-IgG (Biolegend, 405307), and the adhesion ratio was detected by flow cytometry. Details of adhesion assay have been published in the method of “Tang L, Yang J, Tang X, et al. The DC-SIGN family member LSECtin is a novel ligand of CD44 on activated T cells[J], European journal of immunology. 2010, 40(4): 1185-1191”.
# [2] = target: T1, BTN3A1 overexpressed on BT474 cells …; assay: flow cytometric adhesion assay, murine LSECtin-Fc detected with anti-IgG
# Text: as §1
# [3] = target: BTN3A2 overexpressed on BT474 cells (BT474-BTN3A2) (Homo sapiens (Human), UniProt P78410 30-334); assay: as above
# BTN3A2 overexpressed on BT474 cells (BT474-BTN3A2), sequence (P78410 30-334 limits assumed): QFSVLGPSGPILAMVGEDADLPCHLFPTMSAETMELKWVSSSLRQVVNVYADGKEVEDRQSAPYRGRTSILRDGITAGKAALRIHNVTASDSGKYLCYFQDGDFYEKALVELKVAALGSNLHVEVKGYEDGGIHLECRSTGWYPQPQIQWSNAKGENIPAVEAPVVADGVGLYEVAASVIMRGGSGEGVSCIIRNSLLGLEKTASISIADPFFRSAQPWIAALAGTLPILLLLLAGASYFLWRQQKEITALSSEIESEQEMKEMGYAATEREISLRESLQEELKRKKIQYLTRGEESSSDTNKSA
# Text: as §1
# T1 sequence (O00481 30-513 limits assumed): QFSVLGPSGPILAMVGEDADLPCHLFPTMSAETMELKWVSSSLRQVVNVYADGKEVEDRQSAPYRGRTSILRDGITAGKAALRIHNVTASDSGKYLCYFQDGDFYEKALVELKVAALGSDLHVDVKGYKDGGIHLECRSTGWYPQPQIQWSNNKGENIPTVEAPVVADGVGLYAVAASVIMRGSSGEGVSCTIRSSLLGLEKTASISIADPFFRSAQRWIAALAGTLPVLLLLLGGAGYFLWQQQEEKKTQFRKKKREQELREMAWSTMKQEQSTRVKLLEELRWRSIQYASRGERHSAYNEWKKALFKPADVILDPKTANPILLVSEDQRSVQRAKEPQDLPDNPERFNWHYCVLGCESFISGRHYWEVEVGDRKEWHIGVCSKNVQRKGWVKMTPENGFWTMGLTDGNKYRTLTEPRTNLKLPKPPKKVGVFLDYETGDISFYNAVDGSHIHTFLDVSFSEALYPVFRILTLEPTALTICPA
Binder,binding result [1],binding result [2],binding result [3]
"human LSECtin protein (R&D, 2947-CL) (ligand, Bought recombinant protein (R&D 2947-CL); also called human recombinant protein LSECtin; Liver Sinusoidal Endothelial Cells lectin) SKASTERAALLDGHDLLRTNASKQTAALGALKEEVGDCHSCCSGTQAQLQTTRAELGEAQAKLMEQESALRELRERVTQGLAEAGRGREDVRTELFRALEAVRLQNNSCEPCPTSWLSFEGSCYFFSVPKTTWAAAQDHCADASAHLVIVGGLDEQGFLTRNTRGRGYWLGLRAVRHLGKVQGYQWVDGVSLSFSHWNQGEPNDAWGRENCVMMLHTGLWNDAPCDSEKDGWICEKRHNC",no binding,,
"mouse LSECtin-Fc protein (Fc fusion, UniProt Q8BNX1 52-294, looked up, also called murine LSECtin-Fc; murine LSECtin; not shown: Fc part) LLSSASSKLRVLLSHQDLLRTNASEQKMTLSSLKDDIGACRNCCSVTKAQLQTTLAEFKDIQAKLMEQESILKELQERVTQDLAKASRDRENIRSELFQALEAVKRQNSSCEQCPPSWLPFQGSCYYFSETQATWDTAQSYCGGQGAHLVIVRGLNEQGFLSQHTRGRGYWLGLRAVRHLNKIQGYRWVDGASLNFSHWNSGEPNDSRGHEDCIMMLHSGLWNDAPCTNERDGWICEKRSSCY",,no binding,no binding
